Measured values from patent US20230346948A1, “Lipid conjugated peptide inhibitors of PICK1” (University of Copenhagen, priority 2020, published 2023).

Columns and labels:
[1] = molecular target: T1, purified PICK1 (Rattus norvegicus, UniProt Q9EP80); test: Fluorescence polarization competition, substituted peptide libraries; format: binding; conditions: relative to HWLKV; tracer 5FAM-HWLKV 20 nM
T1 construct: Full length rat PICK1 (pET41) was prepared as described earlier; inferred from pET41 vector and Glutathione-Sepharose capture) (N, cleaved yes); made in house; host or cells: E. coli BL21-DE3-pLysS
Experimental: Full length rat PICK1 (pET41) was prepared as described earlier (Madsen et al., 2005). In brief, PICK1 was expressed in BL21-DE3-pLysS cells and grown at 37° C., induced at OD600=0.6 with 1 mM Isopropyl β-D-1-thiogalactopyranoside (IPTG) and grown 16 hrs at 20° C. Cultures were harvested and re-suspended in 50 mM trisaminomethane (Tris), 125 mM NaCl, 2 mM Dithiothreitol (DTT, Sigma), 1% Triton X-100 (Sigma), 20 μg/mL DNAse 1 and ½ a tablet cOmplete protease inhibitor cocktail (Roche) pr. 1 L culture. The re-suspended pellets were frozen at −80° C. for later purification. The lysate was cleared by centrifugation (36,000×g for 30 min at 4° C.), and the supernatant was incubated with Glutathione-Sepharose 4B beads (GE Healthcare) for 2 hrs at 4° C. under gentle rotation and then centrifuged at 4,000×g for 5 min. The supernatant was removed and the beads were washed twice in 35 mL 50 mM Tris, 125 mM NaCl, 2 mM DTT and 0.01% Triton-X100. The beads were transferred to PD-10 Bio-Spine Chromatography columns (Bio-Rad) and washed with an additional 3 column volumes. Each column was sealed and 0.075 U/μL, Novagen® was added for cleavage 0/N at 4° C. under gentle rotation. PICK1 was eluted on ice and absorption at 280 nm was measured on TECAN plate reader or on a NanoDrop3000. The protein concentration was determined using lambert beers law (A=εcl), εA280PICK1=32320 (cm*mol/L)^−1.
The plate was incubated 20 min on ice in a black half-area Corning Black non-binding surface 96-well plate and the fluorescence polarization was measured directly on a Omega POLARstar plate reader using excitation filter at 488-nm and long pass emission filter at 535-nm.

[2] = Plasma exposure of biotinylated peptide after s.c. injection, ELISA; format: in vivo, mice; conditions: male, C57bl6N, mouse, sc, s.c. 10 μmol/kg, read-out: time of peak plasma concentration (converted)
Experimental: Blood sample collection. Biotinylated TAT-di-PEG4-DATC5 (biot-TPD5; 34 mg/kg=[…]) or Biotinylated myr-di-PEG4-DATC5 (biot-mPD5; […]) diluted in 0.9% NaCl was injected s.c in 8 weeks old male C57bl6N mice (18 mice in total) once, and blood samples were collected after 15 min, 30 min, 1 h, 2 h and 6 h (blood samples from 6 mice per timepoint) using Aprotinine-containing BD Vacutainer®K3EDTA tubes (BD Diagnostics). The blood samples were centrifuged at 3500 RPM for 15 min at 4° C. and the plasma was collected in new tubes and freezed down at −20° C.
ELISA. A 96 well NUNC IMMOBILIZER (Cat. No. 436006) plate was coated with 15 μg/mL […] (Sigma-Aldrich, Product no. A8549) diluted in 100 mM sodium carbonate buffer (pH 9.6) and incubated for 2 h at room temperature on shaker. After incubation the plate was washed with PBS-T (1× phosphate buffered saline with 0.1% TWEEN® 20 (Sigma-Aldrich)) 3×, 1 washing step overnight at room temperature on shaker. […] The plate was read at 450 nm (and 570 nm) on a Wallac VICTOR2 1420 Multilabel Counter from PerkinElmer (Hvidovre, Denmark). The measured absorbance was calibrated to a standard curve generated from standard dilutions of biot-TPD5.

[3] = tested on: diabetic neuropathy (STZ model); conditions: 5MPK, at +2 h
Experimental: Diabetic neuropathy (STZ) model. Diabetes is induced by a single IP injection of […]. Streptozocin solution (100 μl/10 g, Sigma-aldrich S0130, batch #WXBB7152V). Glycemia is tested before, and 7 days after injection.
The mechanical threshold response of the operated mice was measured with calibrated von Frey filaments (“up/down” method) and the 50% threshold (g) was calculated. The experimenter was blinded to mice treatment. […] Compounds were diluted in PBS (vehicle) and administered s.c. at 10 μL/g, in doses as indicated (gabapentine, 5MPK). Statistical analysis was performed using GraphPad Prism 6.0.

T1 sequence (Q9EP80 whole entry): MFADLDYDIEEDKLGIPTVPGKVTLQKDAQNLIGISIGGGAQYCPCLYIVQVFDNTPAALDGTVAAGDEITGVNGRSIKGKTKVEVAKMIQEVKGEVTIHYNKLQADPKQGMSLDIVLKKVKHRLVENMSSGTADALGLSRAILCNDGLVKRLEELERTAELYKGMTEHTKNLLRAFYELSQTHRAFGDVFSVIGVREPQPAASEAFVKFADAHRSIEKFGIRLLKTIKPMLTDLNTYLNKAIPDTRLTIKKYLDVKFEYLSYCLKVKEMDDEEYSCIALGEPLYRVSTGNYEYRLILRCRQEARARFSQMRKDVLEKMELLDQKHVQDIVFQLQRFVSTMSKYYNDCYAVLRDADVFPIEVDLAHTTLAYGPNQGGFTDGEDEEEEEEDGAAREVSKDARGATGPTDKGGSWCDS

Compound | fold affinity change, combinatorial peptide library [1] | other results
IIV [3-mer peptide of combinatorial library] | optimal 3-mer sequences | –
YIIV (DAT-C5 variant) [4-mer peptide of combinatorial library] | optimal 4-mer sequences | –
EIRV (DAT-C5 variant) [4-mer peptide of combinatorial library] | optimal 4-mer sequences | –
IRV [3-mer peptide of combinatorial library] | optimal 3-mer sequences | –
TSIRV (DAT-C5 variant) [5-mer peptide of combinatorial library] | optimal 5-mer sequences | –
CC(C)C[C@H](NC(=O)[C@H](Cc1c[nH]c2ccccc12)NC(=O)[C@H](Cc1c[nH]cn1)NC(=O)CCOCCOCCN(CCOCCOCCC(=O)N[C@@H](Cc1c[nH]cn1)C(=O)N[C@@H](Cc1c[nH]c2ccccc12)C(=O)N[C@@H](CC(C)C)C(=O)N[C@@H](CCCCN)C(=O)N[C@H](C(=O)O)C(C)C)C(=O)[C@H](CCCNC(=N)N)NC(=O)[C@H](CCCNC(=N)N)NC(=O)[C@H](CCCNC(=N)N)NC(=O)[C@H](CCC(N)=O)NC(=O)[C@H](CCCNC(=N)N)NC(=O)[C@H](CCCNC(=N)N)NC(=O)[C@H](CCCCN)NC(=O)[C@H](CCCCN)NC(=O)[C@H](CCCNC(=N)N)NC(=O)CNC(=O)[C@H](Cc1ccc(O)cc1)NC(=O)CCCC[C@@H]1SC[C@@H]2NC(=O)N[C@@H]21)C(=O)N[C@@H](CCCCN)C(=O)N[C@H](C(=O)O)C(C)C [biotinylated Tat-NPEG4-(HWLKV)2] | – | Tmax [2]: 30 min
CC(C)C[C@H](CN)CC(=O)O [Pregabalin, reference compound] | – | maximum reversal of mechanical response threshold [3]: 84.7±10.5 % of baseline
NSVRV (DAT-C5 variant) [5-mer peptide of combinatorial library] | optimal 5-mer sequences | –
